Consider one molecule from patent publication US20250263499A1 (SHENGHE CHINA BIOPHARMACEUTICAL, published 2025).

For orientation: Kd means the equilibrium constant for the complex coming apart. A higher Kd goes with weaker binding. As a reminder, the EC50 is the concentration needed to bring the measured effect to its halfway point. Lower therefore signals higher potency in that assay.

The target in test [1] is T1, human CD24 protein (ACRO) (human, UniProt P25063 27-59).
T1 construct: also called analyte human CD24 protein
T1 chain (looked up): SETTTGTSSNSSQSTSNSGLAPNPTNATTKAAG
The experiment in a line: BLI (ForteBio Octet RED96e), antibody immobilised, human CD24 protein as analyte. As to the method:
ForteBio […] (BLI) was used to detect the affinity of humanized antibodies. The sample to be tested (solidified) was diluted to 20 μg/mL with 0.02% PBST (buffer). The analyte human CD24 protein (ACRO) was diluted to 100 nM with 0.02% PBST (buffer) as the initial concentration, and then diluted by double gradient for 7 gradients starting from this concentration, and a negative control (buffer) was performed.
The molecular interaction analysis instrument (ForteBio; Octet RED96e) was operated, and 200 μL of curing buffer (0.02% PBST) was added to a pre-wetted plate, and the sensor was pre-wetted for 5-10 min. Diluted samples and other reagents for assay were added into wells in the sample plate corresponding to the pre-wetted sensor.

In test [2] the target is T2, CD24 on tumor cells (MCF7, SKOV3, HT55, huCD24-MDA-MB-231, CD24-SKOV3) (human, UniProt P25063 27-59).
T2 construct: whole, on cells; The cell line of each result is named under assay
T2 chain (looked up): T1 chain (looked up)
The experiment in a line: flow cytometry on SKOV3 cells (MFI); table under the graph prints no unit, unit from the x axis label. How it is done:
(§1) The commercial antibody SN3 (ABCOM; ab134375) and IgG1 isotype control were used as control. MCF7, SKOV3, HT55 or huCD24-MDA-MB-231 cells were taken and transferred to a centrifuge tube, and centrifuged at 1000 rpm for 5 min. 100 μL of MCF7, SKOV3, HT55, or huCD24-MDA-MB-231 cells were spread in a 96 U plate, respectively, and washed twice with PBS. 100 μL of the fusion supernatant was added, and diluted for 8 gradients. Cells were incubated at 4° C. for 60 minutes, and then washed twice with excess FACS buffer. Cells were resuspended in 100 μL of FACS buffer and sheep anti-mouse secondary antibody-FITC (ABCOM; ab6785) was added to the samples, incubated for 30 minutes and washed twice with excess FACS buffer. Cells were fixed in fixation buffer and subsequently analyzed by flow cytometry.
(§2) The binding activity of the chimeric antibodies CH-01 and CH-02 and tumor cells was detected according to the method of Example 6.
A general note: Flow cytometry measures light scatter and fluorescence of single cells or particles in a stream.

For test [3], the target named is T2, CD24 on tumor cells (MCF7, SKOV3, HT55, …). The experiment in a line: flow cytometry on MCF7 cells (MFI); table under the graph prints no unit, unit from the x axis label. As to the method:
as §1, §2

B1: chimeric antibody CH-01 (antibody, human IgG1, kappa, V domains shown)
VH: QIQLVQSGPELKKPGETVKISCKASGYIFTDYAIHWVKQAPGKGLKWMGFINTATGEPTYADDFKGRFAFSLETSASTAYLQVNSLKNEDTATYFCTSGVHWGQGTTLTVSS
VL: QIVLTQSPAIMSASLGEEITLTCSASSSVSSMHWYQQKSGTSPKLLIYSTSNLASGVPSRFSGSGSGTFYSLTISSVESEDAADYYCHHWTSYMYTFGGGTKLEIKR
notes: ms-01 variable regions on a human IgG framework, expressed in CHO cells
For B1, the Kd in test [1] came to 8.08 nM. Moreover, the EC50 in test [2] is 1.2 µg/mL; in test [3] it was 1.69 µg/mL.
